Data published in publication PMC3548508.
“And” between values parts separate entries of the source, which are not always exact repeats. Equal entries are not always repeated.

What was measured:
[1] = target: TraM C-terminal domain (TraM 190-322) from the Enterococcus faecalis conjugative plasmid pIP501 (Enterococcus faecalis (conjugative plasmid pIP501)); test: cross-linking
[2] = target: Selenomethionine-containing TraMΔ as crystallised (TraM 194-322) (Enterococcus faecalis (conjugative plasmid pIP501)); test: crystal structure

TraM C-terminal domain (TraM 190-322) from the Enterococcus faecalis conjugative plasmid pIP501 (domain or fragment)
stoichiometry N [1]: 2 and 3

Selenomethionine-containing TraMΔ as crystallised (TraM 194-322) (domain or fragment)
stoichiometry N [2]: 3
